± gives the uncertainty stated by the source.
Assay: protein stability index of a GFP-peptide fusion (yeast GPS) (PSI 1-4); higher = more stable; sorted into four equal gates, so the index is relative within each strain
In short: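 For each peptide, the protein stability index sums the read frequency in every gate after multiplying it by the gate number. Read frequencies came from plasmids that were PCR-amplified from each gate and Illumina-sequenced, with reads assigned to strains by barcodes. The gates were four equal bins of GFP/Cherry fluorescence ratio applied to mid-log yeast in leucine-free medium carrying a pooled library of tiled 17-residue yeast protein peptides fused downstream of GFP on a Cherry-expressing plasmid.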

Row | Sequence | protein stability index (doa10∆) | protein stability index (pdr5∆) | protein stability index (san1∆) | protein stability index (ubr1∆)
1 | PKMGVSSSSLECATCHG [RPO31] | 2.97 ± 0.085 | 3.34 ± 0.049 | 3.32 ± 0.097 | 3.2 ± 0.056
2 | LKIIYTGLCSFDYSVIL [YJL039C/NUP192] | 1.73 ± 0.081 | 1.5 ± 0.057 | 1.6 ± 0.11 | 1.59 ± 0.071
3 | KRLSAALSKFLTHPKYL [YML103C/NUP188] | 2.48 ± 0.072 | 2.25 ± 0.066 | 2.84 ± 0.07 | 2.91 ± 0.065
4 | ASVRIKDKFNQIPLHRA [NAS6] | 2.55 ± 0.095 | 2.68 ± 0.12 | 2.91 ± 0.14 | 3.17 ± 0.055
5 | WYLILSIISSKTSCVVE [RGR1] | 1.46 ± 0.13 | 1.23 ± 0.12 | 1.58 ± 0.26 | 1.18 ± 0.1
6 | GKISKPRFLNKQERSKQ [PRP28] | 1.9 ± 0.088 | 2.46 ± 0.13 | 3.33 ± 0.11 | 2.13 ± 0.088
7 | RHSNALVDILPPDSDSS [RPT3] | 2.51 ± 0.076 | 2.65 ± 0.067 | 2.69 ± 0.062 | 2.47 ± 0.056
8 | KKNVWRSINNLIQEHDS [BRN1] | 3.16 ± 0.1 | 2.75 ± 0.075 | 2.63 ± 0.052 | 2.57 ± 0.041
9 | LHQRTHKQVYPLRMETI [DSN1] | 2.28 ± 0.06 | 2.66 ± 0.042 | 2.44 ± 0.048 | 2.6 ± 0.039
10 | VDFACCTNLTNRTLYEL [GRR1] | 2.72 ± 0.061 | 2.71 ± 0.061 | 2.26 ± 0.06 | 2.73 ± 0.044
11 | INQIFSPEEQRSLLQEA [GAL11] | 2.95 ± 0.12 | 3.07 ± 0.063 | 3.53 ± 0.11 | 3.03 ± 0.1
12 | PKRKRRLPVSEDTNTKP [YOR098C/NUP1] | 3.16 ± 0.11 | 2.82 ± 0.13 | – | 2.97 ± 0.073
13 | MAAALPNPTPSMINSVS [PGD1] | 1.77 ± 0.05 | 2.3 ± 0.061 | 2.05 ± 0.052 | 2.1 ± 0.045
14 | KIKFDESSKLMTVTKVS [BRR2] | 1.75 ± 0.099 | 1.36 ± 0.078 | 1.5 ± 0.2 | 1.35 ± 0.05
15 | ETVPDNVKTSVSQLYRI [RPO31] | 2.92 ± 0.1 | 3.16 ± 0.13 | 3.21 ± 0.078 | 3.2 ± 0.069
16 | DYYQSIYAKYGAKGSTL [FAS2] | 2.85 ± 0.094 | 2.79 ± 0.07 | 2.71 ± 0.067 | 3.13 ± 0.076
17 | NSDDIIDVDMDASPAPS [SRB5] | 2.71 ± 0.051 | 2.89 ± 0.061 | 2.78 ± 0.056 | 3 ± 0.072
18 | ELVTISWVQPRIISGDQ [RPN9] | 2.44 ± 0.12 | 1.96 ± 0.087 | 2.27 ± 0.12 | 2.98 ± 0.1
19 | KNLISRINTLPQVQLPV [ECM29] | 2.85 ± 0.13 | 2.86 ± 0.1 | 2.9 ± 0.16 | 2.83 ± 0.17
20 | NHPELQGITRNVVNYLS [RPC17] | 2.02 ± 0.062 | 1.83 ± 0.061 | 2.19 ± 0.11 | 2.47 ± 0.062
21 | LSKVSLLTPDIGAVYSG [PRE8] | 1.68 ± 0.055 | 1.99 ± 0.073 | 1.73 ± 0.09 | 2.07 ± 0.071
22 | LSTRAGGLGLNLQTADT [SNF2] | 2.75 ± 0.084 | 2.7 ± 0.068 | 2.7 ± 0.076 | 3.2 ± 0.058
23 | STMKENKDLSELVIRLE [YIL149C/MLP2] | 3.08 ± 0.08 | 3.1 ± 0.082 | 3.16 ± 0.065 | 3.09 ± 0.069
24 | RAKAEAAEFRYKYGYDM [SCL1] | 2.85 ± 0.065 | 2.91 ± 0.063 | 2.71 ± 0.058 | 2.57 ± 0.047
25 | ICIVGGYDDFQEEGSFE [FAS2] | 2.98 ± 0.16 | 2.5 ± 0.11 | 3.5 ± 0.1 | –
26 | FELVSDLSYIEFLFESL [ECM29] | 2.88 ± 0.067 | 2.74 ± 0.077 | 2.97 ± 0.062 | 2.87 ± 0.049
27 | HILPEVPPVENFPVRQW [TAF14] | 2.71 ± 0.12 | 3.05 ± 0.088 | 2.95 ± 0.073 | 3.05 ± 0.055

Row | Sequence | protein stability index (doa10∆) | protein stability index (pdr5∆) | protein stability index (san1∆) | protein stability index (ubr1∆)
28 | ESDETTTDNNNSGNSNS [RPT1] | 3.12 ± 0.094 | 3.11 ± 0.098 | 2.66 ± 0.22 | 3.13 ± 0.051
29 | TFLLNNKNIDIGLLNKS [RPN2] | 3.38 ± 0.21 | 3.11 ± 0.27 | – | 2.61 ± 0.11
30 | SALELVGQLNKVVDQLF [RPN6] | 2.84 ± 0.045 | 2.98 ± 0.065 | 2.82 ± 0.059 | 2.68 ± 0.042
31 | MVPKRSTIITKAINQEL [YCS4] | 1.39 ± 0.1 | 1.88 ± 0.062 | 1.58 ± 0.09 | 2.24 ± 0.068
32 | SGMGPDYRVLVDKSRKV [PRE8] | 3 ± 0.14 | 2.21 ± 0.19 | – | 2.98 ± 0.24
33 | ENYDDTELRQLFQENDD [DSN1] | 2.23 ± 0.072 | 2.63 ± 0.077 | 2.6 ± 0.096 | 2.55 ± 0.13
34 | ITSDALEGITTTIDSLN [SMC3] | 2.45 ± 0.062 | 2.93 ± 0.084 | 2.9 ± 0.08 | 2.99 ± 0.07
35 | EDMIRSVFDATSDPVMH [RPN1] | – | – | 3.15 ± 0.23 | –
36 | APIQLKIDLLSGQFYFR [RGR1] | 2.63 ± 0.14 | 2.86 ± 0.16 | 2.15 ± 0.23 | 3.02 ± 0.082
37 | GNIQISEYNFLEGSVSL [DIS3] | 2.74 ± 0.097 | 3.08 ± 0.091 | 3.05 ± 0.09 | 2.89 ± 0.072
38 | DRDALSGWGAVVYIIKK [PUP3] | 3.12 ± 0.081 | 2.96 ± 0.063 | 2.99 ± 0.06 | 3.13 ± 0.056
39 | DTRSTQGPIVADKNCAK [PUP1] | 3.13 ± 0.11 | 3.59 ± 0.12 | 3.15 ± 0.1 | 3.04 ± 0.086
40 | ISKHSKQAIYTRATASE [RPS25A] | 1.98 ± 0.056 | 2.03 ± 0.045 | 1.97 ± 0.072 | 1.85 ± 0.039
41 | TNHSAAASTPTTTATPH [PGD1] | 2.91 ± 0.033 | 3.026 ± 0.029 | 2.99 ± 0.027 | 2.939 ± 0.023
42 | AVRLILPGELAKHAVSE [HTB1] | 3.23 ± 0.095 | 2.98 ± 0.064 | 1.52 ± 0.17 | 3.28 ± 0.064
43 | NLTPANILNMSMNNDFQ [PGD1] | 2.86 ± 0.11 | 3.22 ± 0.091 | 3.01 ± 0.068 | 2.89 ± 0.052
44 | REKNALKRLAWQYIVID [ISW2] | 2.1 ± 0.099 | 1.74 ± 0.14 | 1.76 ± 0.12 | 2.03 ± 0.082
45 | DYAQLDHLVSSIPMGGQ [ARP9] | 2.1 ± 0.065 | 2.36 ± 0.071 | 2.36 ± 0.067 | 2.15 ± 0.053
46 | KSYASLLAQLNGTVNNN [RPT3] | 2.61 ± 0.14 | 1.84 ± 0.11 | 2.2 ± 0.19 | 2.55 ± 0.12
47 | EKQTPNKKDKKKEEEEQ [RPN1] | 3 ± 0.059 | 2.98 ± 0.092 | 3.01 ± 0.042 | 3.16 ± 0.058
48 | AEQEKAKNIISNVLDGN [LRP1] | 2.45 ± 0.051 | 2.7 ± 0.059 | 2.63 ± 0.056 | 2.98 ± 0.05
49 | IKELRSKGYPIQFLTIG [FAS1] | 1.87 ± 0.11 | 2.22 ± 0.068 | 1.43 ± 0.096 | 1.68 ± 0.071
50 | SNAVTQTNIWEENWDDV [SEM1] | 3.36 ± 0.085 | 3.46 ± 0.12 | 3.32 ± 0.084 | 3.43 ± 0.14
51 | YTYHSTNKDNKAELIKP [ARP9] | 2.74 ± 0.065 | 2.69 ± 0.053 | 3.06 ± 0.044 | 2.98 ± 0.063
52 | KERKLRENIAMLKRFFP [SMC1] | 2.38 ± 0.18 | 2.52 ± 0.14 | 2.65 ± 0.23 | 2.59 ± 0.16
53 | LVGSWKKDRATGDADEP [RPO21] | 3.14 ± 0.22 | 3.55 ± 0.11 | 3.15 ± 0.11 | 3.46 ± 0.081
54 | GQNCLDIDGIMDNPRKL [SNU114] | – | 3.43 ± 0.27 | 3.4 ± 0.092 | 3.81 ± 0.27

From the supplement of paper PMC9732359
